This note sets out measurements from patent US20140205612A1 (published 2014).

In assay [1] the target is T1, recombinant monomeric gp120 JR-CSF (HIV-1 JR-CSF, UniProt P20871 32-503).
T1 construct: domain: gp120; also called JR-CSF gp120; JR-CSFgp120
As to the kind of experiment: mAb Specificity column, ELISA screen. In general terms: An ELISA detects its analyte on a solid surface through an enzyme-linked reagent.
Procedure: In anti-gp120 ELISA, recombinant gp120 (0.5 μg/ml) was captured on 384 well ELISA plates pre-coated (at 4° C. overnight) with goat anti-gp120 (5 μg/ml) in BSA-containing assay buffer (PBS with 0.05% Tween-20) for 1 hr at room temperature. After excess gp120 was removed and plates were washed thrice with assay buffer, B cell culture supernatants diluted 5-fold was added to incubate for 1 hr at room temperature. Following three washes in assay buffer, secondary HRP-conjugated goat anti-human Ig Fc in BSA-containing assay buffer was added and incubated for about 1 hr at room temperature. 3,3′,5,5′-tetramethylbenzidine (TMB) substrate was used to develop the colorimetric readouts after washing the ELISA plates 3 times.

The target in assay [2] is HIV-1 JR-CSF Env on pseudovirus (HIV-1 JR-CSF, UniProt P20871 32-848). As to the kind of experiment: cell-based or functional assay.
Assay [3] deals with 92RW020 Env on pseudovirus (HIV-1 92RW020). Put plainly: cell-based or functional assay.
The next assay deals with ADA Env on pseudovirus (HIV-1 ADA). As to the kind of experiment: cell-based or functional assay.
Assay [4] deals with JR-FL(E168K) Env on pseudovirus (HIV-1 JR-FL). Put plainly: cell-based or functional assay.

B1: 1456_P20 (PG20) (antibody, human IgG1, kappa, V domains shown)
VH: QVRLVQSGPEVKKPGSSVTVSCQASGGTFSSYAFTWVRQAPGQGLEWLGMVTPIFGEAKYSQRFEGRVTITADESTSTTSIELRGLTSEDTAIYYCARDRRAVPIATDNWLDPWGQGTLVTVSS
VL: DIQLTQSPSSLSASVGDRVSITCRASQTINNYLNWYQQTPGKAPKLLIYGASNLQNGVPSRFSGSGSGTDFTLTISSLQPEDFATYYCQQSFSTPRTFGQGTRLDIKR
Consider B1, for which the binding result in assay [1] was “binds”.

B2: 1460_G14 (PGG14) (antibody, human IgG1, kappa, V domains shown)
VH: QVLLVQSGTEVKKPGSSVKVSCQASGGAFSSYAFSWVRQAPGQGLEWMGMITPVFGETKYAPRFQGRLTLTAEESLSTTYMELRSLTSDDTAFYYCTRDRRVVPMATDNWLDPWGQGTLVTVSS
VL: DIQLTQSPSSLSASVGDRVTVTCRASQTIHTYLNWYQQIPGKAPKLLIYGASTLQSGVPSRFSGSGSGTDFTLTINSLQPEDFATYYCQQSYSTPRTFGQGTRLDIKR
For B2, in assay [1], the binding result was “binds”.

B3: 1495_C14 (PGC14) (antibody, human IgG1, lambda, V domains shown)
VH: DGHLVQSGVEVKKTGATVKISCKVSGYSFIDYYLHWVQRAPGKGLEWVGLIDPENGEARYAEKFQGRVTIIADTSIDTGYMEMRSLKSEDTAVYFCAAGAVGADSGSWFDPWGQGTLVTVSS
VL: SYELTQPPSVSVSPGQTASITCSGSKLGDKYVSWYQLRPGQSPILVMYENDRRPSGIPERFSGSNSGDTATLTISGTQALDEADFYCQAWETTTTTFVFFGGGTQLTVLG
Take B3: the binding result in assay [1] is recorded as “binds”.

B4: 1443_C16 (PG16) (TCN-116) (antibody, V domains shown)
VH: QEQLVESGGGVVQPGGSLRLSCLASGFTFHKYGMHWVRQAPGKGLEWVALISDDGMRKYHSDSMWGRVTISRDNSKNTLYLQFSSLKVEDTAMFFCAREAGGPIWHDDVKYYDFNDGYYNYHYMDVWGKGTTVTVSS
VL: QSALTQPASVSGSPGQTITISCNGTSSDVGGFDSVSWYQQSPGKAPKVMVFDVSHRPSGISNRFSGSKSGNTASLTISGLHIEDEGDYFCSSLTDRSHRIFGGGTKVTVLG
With B4, the “IC50 (ug/ml), pseudovirus neutralization, TZM-bl assay” value in assay [2] came out at 0.001 µg/mL; in assay [3] it was 0.09 µg/mL; with ADA Env on pseudovirus, 0.004 µg/mL; in assay [4], 0.006 µg/mL.

B5: 1496_C09 (PG9) (TCN-109) (antibody, V domains shown)
VH: QRLVESGGGVVQPGSSLRLSCAASGFDFSRQGMHWVRQAPGQGLEWVAFIKYDGSEKYHADSVWGRLSISRDNSKDTLYLQMNSLRVEDTATYFCVREAGGPDYRNGYNYYDFYDGYYNYHYMDVWGKGTTVTVSS
VL: QSALTQPASVSGSPGQSITISCNGTSNDVGGYESVSWYQQHPGKAPKVVIYDVSKRPSGVSNRFSGSKSGNTASLTISGLQAEDEGDYYCKSLTSTRRRVFGTGTKLTVLG
Take B5: the “IC50 (ug/ml), pseudovirus neutralization, TZM-bl assay” value was 0.1 µg/mL in assay [3] and 0.2 µg/mL with ADA Env on pseudovirus.
